From patent US20250218531A1 (ABSCI, published 2025) come the findings set out here.

The target in the test is T1, HER2 (human epidermal growth factor receptor 2) (human, UniProt P04626 23-629).
T1 construct: also called Antigen: HER2
Put plainly: SPR. Background: In SPR one partner is held on a chip, and binding of the other changes the refractive index at the surface.

B1: Trastuzumab HCDR3 variant ARYGGGYYYMDY (Fab, V domains shown)
VH: EVQLVESGGGLVQPGGSLRLSCAASGFNIKDTYIHWVRQAPGKGLEWVARIYPTNGYTRYADSVKGRFTISADTSKNTAYLQMNSLRAEDTAVYYCARYGGGYYYMDYWGQGTLVTVSS
VL: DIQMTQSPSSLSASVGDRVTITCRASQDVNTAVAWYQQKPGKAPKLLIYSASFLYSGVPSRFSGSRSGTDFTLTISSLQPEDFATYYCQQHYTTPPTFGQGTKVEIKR
For orientation: Kd means a measure of binding affinity in units of concentration. A low value points to a tighter complex. With B1, the Kd came out at 13.3 nM and the “log(KD (M))” value is -7.88.

B2: Trastuzumab HCDR3 variant AKYGSNYYYLGS (Fab, V domains shown)
VH: EVQLVESGGGLVQPGGSLRLSCAASGFNIKDTYIHWVRQAPGKGLEWVARIYPTNGYTRYADSVKGRFTISADTSKNTAYLQMNSLRAEDTAVYYCAKYGSNYYYLGSWGQGTLVTVSS
VL: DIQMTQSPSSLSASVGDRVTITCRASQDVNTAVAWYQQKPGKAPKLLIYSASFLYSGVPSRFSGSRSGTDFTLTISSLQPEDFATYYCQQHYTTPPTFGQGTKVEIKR
As for B2, the affinity, expressed as Kd, was 18.7 nM and the “log(KD (M))” value is -7.73.

B3: Trastuzumab HCDR3 variant ARFGNSGYQFDY (Fab, V domains shown)
VH: EVQLVESGGGLVQPGGSLRLSCAASGFNIKDTYIHWVRQAPGKGLEWVARIYPTNGYTRYADSVKGRFTISADTSKNTAYLQMNSLRAEDTAVYYCARFGNSGYQFDYWGQGTLVTVSS
VL: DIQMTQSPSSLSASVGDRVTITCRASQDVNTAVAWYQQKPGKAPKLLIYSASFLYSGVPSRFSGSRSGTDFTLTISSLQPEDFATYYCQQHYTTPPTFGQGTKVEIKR
Consider B3, for which the Kd turned out to be 10.5 nM and the “log(KD (M))” value is -7.98.

B4: Trastuzumab HCDR3 variant ARWGDYYYYMDY (Fab, V domains shown)
VH: EVQLVESGGGLVQPGGSLRLSCAASGFNIKDTYIHWVRQAPGKGLEWVARIYPTNGYTRYADSVKGRFTISADTSKNTAYLQMNSLRAEDTAVYYCARWGDYYYYMDYWGQGTLVTVSS
VL: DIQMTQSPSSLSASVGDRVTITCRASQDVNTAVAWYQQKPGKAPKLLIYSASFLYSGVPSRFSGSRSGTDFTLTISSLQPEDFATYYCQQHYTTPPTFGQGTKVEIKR
As for B4, the Kd turned out to be 2.36 nM and the “log(KD (M))” value is -8.63.

B5: Trastuzumab HCDR3 variant ALYNYYYYAFGF (Fab, V domains shown)
VH: EVQLVESGGGLVQPGGSLRLSCAASGFNIKDTYIHWVRQAPGKGLEWVARIYPTNGYTRYADSVKGRFTISADTSKNTAYLQMNSLRAEDTAVYYCALYNYYYYAFGFWGQGTLVTVSS
VL: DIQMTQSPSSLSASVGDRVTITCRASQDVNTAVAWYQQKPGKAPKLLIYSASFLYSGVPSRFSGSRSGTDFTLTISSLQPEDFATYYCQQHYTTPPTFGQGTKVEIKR
Consider B5, for which the Kd was 20.6 nM and the “log(KD (M))” value was -7.69.

B6: Trastuzumab HCDR3 variant AIYSDGAYFYGR (Fab, V domains shown)
VH: EVQLVESGGGLVQPGGSLRLSCAASGFNIKDTYIHWVRQAPGKGLEWVARIYPTNGYTRYADSVKGRFTISADTSKNTAYLQMNSLRAEDTAVYYCAIYSDGAYFYGRWGQGTLVTVSS
VL: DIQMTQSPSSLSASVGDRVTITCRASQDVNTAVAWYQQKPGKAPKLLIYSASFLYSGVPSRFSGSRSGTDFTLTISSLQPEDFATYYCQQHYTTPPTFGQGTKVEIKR
In the case of B6, the Kd was found to be 10.6 nM and the “log(KD (M))” value is -7.98.

B7: Trastuzumab HCDR3 variant ARFGGYYYYFDY (Fab, V domains shown)
VH: EVQLVESGGGLVQPGGSLRLSCAASGFNIKDTYIHWVRQAPGKGLEWVARIYPTNGYTRYADSVKGRFTISADTSKNTAYLQMNSLRAEDTAVYYCARFGGYYYYFDYWGQGTLVTVSS
VL: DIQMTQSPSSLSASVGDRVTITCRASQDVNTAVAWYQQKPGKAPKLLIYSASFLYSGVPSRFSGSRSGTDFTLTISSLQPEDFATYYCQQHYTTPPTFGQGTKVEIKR
Consider B7, for which the dissociation constant (Kd) was 23.5 nM and the “log(KD (M))” value is -7.63.

B8: Trastuzumab HCDR3 variant ARWGGYYYYFDV (Fab, V domains shown)
VH: EVQLVESGGGLVQPGGSLRLSCAASGFNIKDTYIHWVRQAPGKGLEWVARIYPTNGYTRYADSVKGRFTISADTSKNTAYLQMNSLRAEDTAVYYCARWGGYYYYFDVWGQGTLVTVSS
VL: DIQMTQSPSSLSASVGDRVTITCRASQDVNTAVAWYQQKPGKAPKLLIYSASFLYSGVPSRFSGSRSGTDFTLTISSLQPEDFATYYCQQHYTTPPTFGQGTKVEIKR
B8: the Kd stood at 13 nM and the “log(KD (M))” value is -7.89.

B9: Trastuzumab HCDR3 variant AKYSFGGYYYGD (Fab, V domains shown)
VH: EVQLVESGGGLVQPGGSLRLSCAASGFNIKDTYIHWVRQAPGKGLEWVARIYPTNGYTRYADSVKGRFTISADTSKNTAYLQMNSLRAEDTAVYYCAKYSFGGYYYGDWGQGTLVTVSS
VL: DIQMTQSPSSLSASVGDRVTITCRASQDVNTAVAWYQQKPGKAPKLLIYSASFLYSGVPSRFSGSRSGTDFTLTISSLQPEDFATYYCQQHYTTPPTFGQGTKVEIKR
As to B9, the Kd worked out at 19.1 nM and the “log(KD (M))” value is -7.72.

B10: Trastuzumab HCDR3 variant AAYTNTFYYLVY (Fab, V domains shown)
VH: EVQLVESGGGLVQPGGSLRLSCAASGFNIKDTYIHWVRQAPGKGLEWVARIYPTNGYTRYADSVKGRFTISADTSKNTAYLQMNSLRAEDTAVYYCAAYTNTFYYLVYWGQGTLVTVSS
VL: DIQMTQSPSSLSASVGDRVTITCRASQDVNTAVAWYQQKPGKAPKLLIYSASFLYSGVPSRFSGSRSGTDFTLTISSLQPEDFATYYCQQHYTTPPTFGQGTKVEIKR
Consider B10, for which the affinity, expressed as Kd, was 19.8 nM and the “log(KD (M))” value is -7.7.

B11: Trastuzumab HCDR3 variant ARFGSYYYYFDY (Fab, V domains shown)
VH: EVQLVESGGGLVQPGGSLRLSCAASGFNIKDTYIHWVRQAPGKGLEWVARIYPTNGYTRYADSVKGRFTISADTSKNTAYLQMNSLRAEDTAVYYCARFGSYYYYFDYWGQGTLVTVSS
VL: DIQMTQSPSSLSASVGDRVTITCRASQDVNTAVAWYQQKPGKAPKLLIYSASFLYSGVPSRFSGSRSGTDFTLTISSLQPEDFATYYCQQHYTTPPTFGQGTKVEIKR
For B11, binding was characterised by a dissociation constant (Kd) of 13 nM and the “log(KD (M))” value is -7.89.

B12: Trastuzumab HCDR3 variant ALYGNYSYGFAR (Fab, V domains shown)
VH: EVQLVESGGGLVQPGGSLRLSCAASGFNIKDTYIHWVRQAPGKGLEWVARIYPTNGYTRYADSVKGRFTISADTSKNTAYLQMNSLRAEDTAVYYCALYGNYSYGFARWGQGTLVTVSS
VL: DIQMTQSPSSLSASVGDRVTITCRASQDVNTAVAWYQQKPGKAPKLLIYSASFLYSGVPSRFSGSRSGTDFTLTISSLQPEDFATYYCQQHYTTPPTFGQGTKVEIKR
Turning to B12, binding was put at a Kd of 12.6 nM and the “log(KD (M))” value was -7.9.

B13: Trastuzumab HCDR3 variant ARWGFSMYSFDY (Fab, V domains shown)
VH: EVQLVESGGGLVQPGGSLRLSCAASGFNIKDTYIHWVRQAPGKGLEWVARIYPTNGYTRYADSVKGRFTISADTSKNTAYLQMNSLRAEDTAVYYCARWGFSMYSFDYWGQGTLVTVSS
VL: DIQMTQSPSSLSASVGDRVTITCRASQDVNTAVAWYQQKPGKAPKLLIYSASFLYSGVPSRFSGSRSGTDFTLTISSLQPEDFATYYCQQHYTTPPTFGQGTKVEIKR
B13: the Kd came out at 7.5 nM and the “log(KD (M))” value was -8.12.

B14: Trastuzumab HCDR3 variant ARWAGDYYVMDY (Fab, V domains shown)
VH: EVQLVESGGGLVQPGGSLRLSCAASGFNIKDTYIHWVRQAPGKGLEWVARIYPTNGYTRYADSVKGRFTISADTSKNTAYLQMNSLRAEDTAVYYCARWAGDYYVMDYWGQGTLVTVSS
VL: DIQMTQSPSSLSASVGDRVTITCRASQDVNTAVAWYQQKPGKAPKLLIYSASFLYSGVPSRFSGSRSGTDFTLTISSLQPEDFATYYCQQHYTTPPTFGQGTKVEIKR
As for B14, the affinity, expressed as Kd, was 7.68 nM and the “log(KD (M))” value is -8.11.

B15: Trastuzumab HCDR3 variant ARWFGGYYHMDY (Fab, V domains shown)
VH: EVQLVESGGGLVQPGGSLRLSCAASGFNIKDTYIHWVRQAPGKGLEWVARIYPTNGYTRYADSVKGRFTISADTSKNTAYLQMNSLRAEDTAVYYCARWFGGYYHMDYWGQGTLVTVSS
VL: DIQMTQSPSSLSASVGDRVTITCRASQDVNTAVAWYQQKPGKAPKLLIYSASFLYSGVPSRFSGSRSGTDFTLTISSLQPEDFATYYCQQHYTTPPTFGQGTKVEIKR
As to B15, the affinity, expressed as Kd, was 8.52 nM and the “log(KD (M))” value is -8.07.

B16: Trastuzumab HCDR3 variant ALWGFGWYYFDY (Fab, V domains shown)
VH: EVQLVESGGGLVQPGGSLRLSCAASGFNIKDTYIHWVRQAPGKGLEWVARIYPTNGYTRYADSVKGRFTISADTSKNTAYLQMNSLRAEDTAVYYCALWGFGWYYFDYWGQGTLVTVSS
VL: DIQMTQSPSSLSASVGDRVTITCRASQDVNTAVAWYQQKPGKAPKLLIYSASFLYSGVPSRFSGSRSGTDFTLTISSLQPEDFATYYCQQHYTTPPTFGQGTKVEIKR
Turning to B16, the Kd is 5.31 nM and the “log(KD (M))” value was -8.28.

B17: Trastuzumab HCDR3 variant ARWGDGYYYMDY (Fab, V domains shown)
VH: EVQLVESGGGLVQPGGSLRLSCAASGFNIKDTYIHWVRQAPGKGLEWVARIYPTNGYTRYADSVKGRFTISADTSKNTAYLQMNSLRAEDTAVYYCARWGDGYYYMDYWGQGTLVTVSS
VL: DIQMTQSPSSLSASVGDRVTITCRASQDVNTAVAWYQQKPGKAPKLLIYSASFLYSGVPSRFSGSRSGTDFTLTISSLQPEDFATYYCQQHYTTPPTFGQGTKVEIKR
For the molecule B17, the Kd is 5.57 nM and the “log(KD (M))” value was -8.25.

B18: Trastuzumab HCDR3 variant AKYGDDNYGFSH (Fab, V domains shown)
VH: EVQLVESGGGLVQPGGSLRLSCAASGFNIKDTYIHWVRQAPGKGLEWVARIYPTNGYTRYADSVKGRFTISADTSKNTAYLQMNSLRAEDTAVYYCAKYGDDNYGFSHWGQGTLVTVSS
VL: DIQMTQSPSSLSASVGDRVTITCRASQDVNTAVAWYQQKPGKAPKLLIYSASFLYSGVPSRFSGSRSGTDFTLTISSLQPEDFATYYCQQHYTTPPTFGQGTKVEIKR
For B18, the affinity, expressed as Kd, was 15.4 nM and the “log(KD (M))” value is -7.81.

B19: Trastuzumab HCDR3 variant ARWGGNYYYMDY (Fab, V domains shown)
VH: EVQLVESGGGLVQPGGSLRLSCAASGFNIKDTYIHWVRQAPGKGLEWVARIYPTNGYTRYADSVKGRFTISADTSKNTAYLQMNSLRAEDTAVYYCARWGGNYYYMDYWGQGTLVTVSS
VL: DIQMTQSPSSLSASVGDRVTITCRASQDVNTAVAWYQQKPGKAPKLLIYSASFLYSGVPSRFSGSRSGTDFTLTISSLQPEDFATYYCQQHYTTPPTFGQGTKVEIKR
Regarding B19, the Kd came out at 4.22 nM and the “log(KD (M))” value was -8.37.

B20: Trastuzumab HCDR3 variant ARWFYDYYYMDY (Fab, V domains shown)
VH: EVQLVESGGGLVQPGGSLRLSCAASGFNIKDTYIHWVRQAPGKGLEWVARIYPTNGYTRYADSVKGRFTISADTSKNTAYLQMNSLRAEDTAVYYCARWFYDYYYMDYWGQGTLVTVSS
VL: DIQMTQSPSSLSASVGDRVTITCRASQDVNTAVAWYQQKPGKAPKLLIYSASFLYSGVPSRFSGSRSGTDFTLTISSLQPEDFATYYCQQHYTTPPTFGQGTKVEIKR
With B20, the Kd amounted to 12.6 nM and the “log(KD (M))” value is -7.9.

B21: Trastuzumab HCDR3 variant ARWGGDFYAMDY (Fab, V domains shown)
VH: EVQLVESGGGLVQPGGSLRLSCAASGFNIKDTYIHWVRQAPGKGLEWVARIYPTNGYTRYADSVKGRFTISADTSKNTAYLQMNSLRAEDTAVYYCARWGGDFYAMDYWGQGTLVTVSS
VL: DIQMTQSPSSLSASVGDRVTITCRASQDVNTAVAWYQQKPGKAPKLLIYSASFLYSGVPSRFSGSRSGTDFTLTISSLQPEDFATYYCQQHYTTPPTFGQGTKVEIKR
As for B21, binding was put at a Kd of 9.49 nM and the “log(KD (M))” value was -8.02.
